Experimental findings from patent publication US20250000945A1, “Suppression of Neurodegeneration with Zinc Transporter Protein 7” (The Regents of the University of California, priority 2021, published 2025) are described below.

One data set deals with border cells. Nature of the data set: Border cell migration in stage 10 egg chambers expressing Catsup RNAi (rescue by co-expressed transgenes). Conditions: co-expressed with Catsup RNAi in border cells. It is filed as in vivo, Drosophila. The source says: Border cell clusters are composed of 4-6 migratory cells that surround and carry two non-migratory polar cells. Expression of a Catsup RNAi line in outer, migratory border cells using fruitlessGal4^51 inhibited migration (FIG. 2A). The defect was rescued by co-expression of UAS-CatsupV5 (FIG. 2B). Reduction of Catsup::GFP confirmed the effectiveness of the RNAi (FIGS. 2C, C′ and 2D, D′). Border cell migration was also impaired when Catsup RNAi was driven by c306Gal4 (FIG. 2E), which is expressed in both polar and migratory cells.
ZIP7 resides in the ER membrane and transports Zn^2+ from the ER to the cytosol^64. To test whether the Zn^2+ transporter activity of Catsup was important for border cell migration, we introduced point mutations, H315A and H344A, which replace histidine residues that are required for Zn^2+ transport and are conserved between Catsup, ZIP7 and a more distant family member from Arabidopsis IRT1. […] We generated transgenic flies expressing the mutants under Gal4/UAS control and included a V5 tag so that we could monitor protein abundance and localization. We then co-expressed each of these RNAi-resistant transgenes with CatsupRNAi and evaluated protein expression and border cell migration (FIGS. 5B-5E). […] All the proteins were stably expressed and correctly localized to the ER (FIGS. 5B-5E), therefore the lack of rescue was likely a consequence of impaired transporter activity rather than impaired expression, localization, or another function. […] From these experiments, we conclude that Zn^2+ transport is an essential function of Catsup in promoting ERAD.
Catsup mutant fly was generated by ethyl methanesulfonate (EMS) mutagen^37. The mutation results in glycine(G) to aspartic acid(D) replacement at amino acid 178. The FLP/FRT system was used to generate the Catsup^G178D homozygous mutant clones by combining FRT40A-Catsup^G178D with hsFLP12,yw;ubi:GFPnls, FRT40A or hsFLP12,yw;ubi:RFPnls, FRT40A/(CyO). Catsup::GFP expression pattern visualized by the line from VDRC 318542 in the fTRG stocks library. The UAS-CatsupRNAi transgenic line is from VDRC 100095 P{KK103630}VIE-260B. Wild type rescue w[*]; sna[Sco]/CyO; P{w[+mCJ=UAS-Catsup. V5}6 Bloomington 63229. Additional transgenic Drosophila stocks used: UAS-wRNAi/Cyo is a lab stock, UAS-PleRNAi Bloomington 25796 y[1] v[1]; P{y[+t7.7] v[+t1.8]=TRiP.JF01813}attP2, UAS-Ple is Bloomington 37539 w[*]; P{w[+mC]=UAS-ple.T}331f2, O-fucosyltransferasel Bloomington 9376 P{UAS-O-fut.}]1.1, UAS-Notch.Intracellular.Domain on third chromosome was a gift from Artavanis-Tsakonas lab^71. The ER stress marker UAS-Xbp1-EGFP.HG Bloomington 60731 w[*]; P{w[+mC]=UAS-Xbp1.EGFP.HG}3, UAS-HSC70-3 Bloomington 5843 w[126]; P{w[+mC]=UAS-Hsc70-3. WT}B. Catsup point mutations were cloned into vector pUASt-attb with forward primer ctctgaatagggaattggg[…] (SEQ ID NO:1) and reverse primer ccgcagatctgttaacgtca[…] (SEQ ID NO:2). The vector was injected to attp2 flies y1 w67c23; P{CaryP}attP2 by BestGene Inc.
When generating UAS-Catsup-point-mutations, we designed the construct so it cannot be targeted by the CatsupRNAi sequences by substituting redundant codons for the same amino acids within the region targeted by the RNAi. The RNAi resistant sequence is below with nucleic acid substitutions in lower case:
Point mutations were designed by changing codons at the following site CatsupH183A (CAC to GCC), CatsupH187A (CAT to GCT), CatsupH315A (CAT to GCT), CatsupH344A ([…]). […]

For data set [1], the system named is border cells expressing Rh1^G69D. Nature of the data set: ER stress (Xbp1::EGFP) and migration of border cells expressing misfolded rhodopsin Rh1^G69D. The note with it: overexpression. It is filed as in vivo, Drosophila. The text has this:
To test whether ER stress impairs border cell migration, we expressed a misfolded rhodopsin protein Rh1^G69D, known to induce ER stress^61 As expected, Rh1^G69D induced Xbp1 expression in border cells (FIG. 4D insert). […] Since loss of Catsup caused ER stress, we wondered if Catsup over-expression might suppress ER stress.
Catsup mutant fly was generated by ethyl methanesulfonate (EMS) mutagen^37. The mutation results in glycine(G) to aspartic acid(D) replacement at amino acid 178. The FLP/FRT system was used to generate the Catsup^G178D homozygous mutant clones by combining FRT40A-Catsup^G178D with hsFLP12,yw;ubi:GFPnls, FRT40A or hsFLP12,yw;ubi:RFPnls, FRT40A/(CyO). Catsup::GFP expression pattern visualized by the line from VDRC 318542 in the fTRG stocks library. The UAS-CatsupRNAi transgenic line is from VDRC 100095 P{KK103630}VIE-260B. Wild type rescue w[*]; sna[Sco]/CyO; P{w[+mCJ=UAS-Catsup. V5}6 Bloomington 63229. Additional transgenic Drosophila stocks used: UAS-wRNAi/Cyo is a lab stock, UAS-PleRNAi Bloomington 25796 y[1] v[1]; P{y[+t7.7] v[+t1.8]=TRiP.JF01813}attP2, UAS-Ple is Bloomington 37539 w[*]; P{w[+mC]=UAS-ple.T}331f2, O-fucosyltransferasel Bloomington 9376 P{UAS-O-fut.}]1.1, UAS-Notch.Intracellular.Domain on third chromosome was a gift from Artavanis-Tsakonas lab^71. […]

In data set [2] the test system is follicle cells / border cells. Nature of the data set: ER stress markers (Xbp1::EGFP, PDI) in cells lacking Catsup. It is filed as in vivo, Drosophila. Conditions: mosaic clones expressing CatsupRNAi. The text has this: To test if Catsup knockdown induces the UPR in follicle cells, we compared expression of the ER stress marker Xbp1::EGFP^59 in mosaic border cell clusters composed of heterozygous Catsup^+/− and homozygous Catsup^−/− mutant cells. We found high levels of Xbp1 in Catsup^−/− but not Catsup^+/− border cells (FIG. 4A-A″). […] Accumulation of XBP1 and PDI are indicative of induction of an adaptive UPR^60. This effect was rescued by co-expression of CatsupV5 (FIG. 4C-C″).
Catsup mutant fly was generated by ethyl methanesulfonate (EMS) mutagen^37. The mutation results in glycine(G) to aspartic acid(D) replacement at amino acid 178. The FLP/FRT system was used to generate the Catsup^G178D homozygous mutant clones by combining FRT40A-Catsup^G178D with hsFLP12,yw;ubi:GFPnls, FRT40A or hsFLP12,yw;ubi:RFPnls, FRT40A/(CyO). Catsup::GFP expression pattern visualized by the line from VDRC 318542 in the fTRG stocks library. The UAS-CatsupRNAi transgenic line is from VDRC 100095 P{KK103630}VIE-260B. Wild type rescue w[*]; sna[Sco]/CyO; P{w[+mCJ=UAS-Catsup. V5}6 Bloomington 63229. […]

Data set [3] has as its system misfolded rhodopsin protein Rh1^G69D. Nature of the data set: Rh1^G69D protein abundance in cells over-expressing Catsup (ERAD). It is filed as in vivo, Drosophila. Conditions: border cells, overexpression. On the procedure: The UPR reinstates ER homeostasis by upregulating the protein-folding capacity of the ER and increasing its protein-degradation capacity^62. During ERAD, misfolded proteins are extruded from the ER, ubiquitinated, and degraded by the proteasome^60. To test whether Catsup overexpression might enhance ERAD, we examined Rh1^G69D protein abundance in cells over-expressing Catsup.
Female flies were fattened with yeast for 2 days at 29° C. Egg chambers were dissected from ovaries of female flies in Schneider's medium with 10% FBS (pH=6.85-6.95) as described previously^72. Freshly dissected egg chambers were fixed in 4% paraformaldehyde and then incubated overnight in 1×PBS with 0.4% triton and the following primary antibodies: mouse anti-PDI (1:200) (ADI-SPA-891-D Enzo Life Sciences, Inc.), chicken anti-GFP (1:200) (ab13970 Abcam plc.), Ple (anti-TH) antibody (a gift from the Craig Montell lab), mouse anti-Notch intracellular domain (1:100) C17.9C6 DSHB, rat Ecadherin antibody DCAD2 (1:50) DSHB, V5 Tag Monoclonal Antibody-Alexa Fluor 555 (2F11F7) Invitrogen, mouse anti-dEGFR (1:2000) E2906 Sigma Aldrich. O-fut1 antibody was used to confirm O-fut1 overexpression, and was a gift from Kenneth D. Irvine lab 73. Secondary antibodies were incubated for 2 hours, together with Hoechst stain for nuclei, and phalloidin stain for F-actin. […]

The subject of the next data set is Vap33. Nature of the data set: Neurodegeneration due to expression of Vap33 in flies. It is filed as in vivo. Conditions: ZIP7 overexpression. The source says: FIG. 9. ZIP7 overexpression suppresses neurodegeneration due to expression of Vap33.
(§1) Overexpression of ZIP7 may mitigate ER stress and neuronal cell death in protein aggregation diseases (FIG. 7). We screened aggregate prone proteins for ZIP7 rescue (FIG. 8). ZIP7 overexpression suppressed neurodegeneration due to expression of Vap33 (FIG. 9) and amyloid β42 (FIG. 10).

The next data set deals with photoreceptor cells. Nature of the data set: Rh1G69D-induced photoreceptor cell death (rough eye) in flies. Conditions: flies expressing Rh1G69D, ZIP7 overexpression. It is filed as in vivo. The source says: FIGS. 6A-6B. ZIP7 prevents Rh1G69D-induced photoreceptor cell death, which causes a rough eye. (FIG. 6A) Percentage of flies having the Rh1^G69D genotype that develop rough eye in presence and absence of ZIP7 expression. (FIG. 6B) Comparison of eye morphology of flies having the Rh1^G69D genotype in presence and absence of ZIP7 expression.
ZIP7 overexpression prevented photoreceptor cell death in the eyes of flies expressing mutant forms of rhodopsin.

The subject of a further data set is amyloid β42. Nature of the data set: Neurodegeneration due to expression of amyloid β42 in flies. It is filed as in vivo. The note with it: ZIP7 overexpression.
Source text: FIG. 10. ZIP7 overexpression suppresses neurodegeneration due to expression of amyloid β42.
as §1

Data set [4] has as its system ubiquitinated proteins / proteasome. Nature of the data set: Ubiquitinated protein levels (FK2/DNA ratio) in egg chambers with and without MG132. It is filed as in vivo, Drosophila. Here is the method:
FIGS. 12A-12C. Overexpressing ZIP7 decreases ubiquitinated protein levels. (FIG. 12A) Egg chambers with and without ZIP7 overexpression (OE) were incubated with media for 5 hours. (FIG. 12B) Egg chambers with and without ZIP7 overexpression (OE) were treated with 10 μM MG132 proteasome inhibitor for 5 hours. (FIG. 12C) Comparison of FK2/DNA ratio egg for chambers incubated with media or 10 μM MG132 proteasome inhibitor for 5 hours with or without ZIP7 overexpression.
Egg chambers with and without ZIP7 overexpression (OE) were incubated with media in the presence or absence of the MG132 proteasome inhibitor (10 μM) for 5 hours (FIGS. 12A and 12B). Overexpressing ZIP7 decreased ubiquitinated protein levels and the FK2/DNA ratio (FIG. 12C).

Setting [5] is: egg chambers, media with or without 10 μM MG132, 5 hours.

Sequence of misfolded rhodopsin protein Rh1^G69D (P06002 whole entry G69D): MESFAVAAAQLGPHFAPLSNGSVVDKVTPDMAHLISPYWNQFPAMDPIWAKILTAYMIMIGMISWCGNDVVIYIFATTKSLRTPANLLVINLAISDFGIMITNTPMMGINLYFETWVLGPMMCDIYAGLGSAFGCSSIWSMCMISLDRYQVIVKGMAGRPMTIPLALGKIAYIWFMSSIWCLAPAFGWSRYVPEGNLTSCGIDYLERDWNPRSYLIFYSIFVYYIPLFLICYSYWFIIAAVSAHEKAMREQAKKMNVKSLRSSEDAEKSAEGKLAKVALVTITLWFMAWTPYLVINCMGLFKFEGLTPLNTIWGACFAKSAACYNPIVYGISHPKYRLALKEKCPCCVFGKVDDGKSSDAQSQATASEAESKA

B1: CatsupV5: V5-tagged wild type Catsup, the Drosophila homolog of ZIP7, expressed under Gal4/UAS control (protein, UniProt Q9V3A4 1-449, looked up)
Protein catecholamines up: MAKQVADYQCSKLQLYQKLALVVILGAVLFSLPALCAGQGNPSFKYSREANENFDPQKAPRAEHHHHHDHDHDHGHHHHGHDHDHDHDHGHDHGHHHHGHDHDHDHDHGHHHHGHDERHTKAKPDLDMSTIWLHSIGSTLLISAAPFVLLYIIPLDNSEAMKPRLKVLLAFASGGLLGDAFLHLIPHATHPHSHGEHGHDHGHDHHHHHDGEEHEHGHSHDMSIGLWVLGGIIAFLSVEKLVRILKGGHGGHGHSHGAPKPKPVPAKKKSSDKEDSGDGDKPAKPAKIKSKKPEAEPEGEVEISGYLNLAADFAHNFTDGLAIGASYLAGNSIGIVTTITILLHEVPHEIGDFAILIKSGCSRRKAMLLQLVTALGALAGTALALLGAGGGDGSAPWVLPFTAGGFIYIATVSVLPELLEESTKLKQSLKEIFALLTGVALMIVIAKFE
modifications: V5 tag
notes: V5-tagged wild type Catsup, the Drosophila homolog of ZIP7, expressed under Gal4/UAS control
B1: the “rescue of border cell migration defect” value in the data set with border cells is on record as “rescued”. In data set [1], the “Rh1^G69D-induced Xbp1 expression” value is recorded as “rescued” and the “border cell migration blocked by Rh1^G69D” value is “rescued”. In addition, the “rescue of ER stress (Xbp1 and PDI accumulation)” value in data set [2] is given as “rescued”. Further, the “Rh1^G69D protein abundance” value in data set [3] is reported as “reduced Rh1^G69D protein to an undetectable level”.

B2: ZIP7: zinc transporter protein 7, overexpressed from a transgene; SEQ ID NO:4 (Drosophila), SEQ ID NO:5 (human) (protein, UniProt Q92504 1-469, looked up)
Zinc transporter SLC39A7: MARGLGAPHWVAVGLLTWATLGLLVAGLGGHDDLHDDLQEDFHGHSHRHSHEDFHHGHSHAHGHGHTHESIWHGHTHDHDHGHSHEDLHHGHSHGYSHESLYHRGHGHDHEHSHGGYGESGAPGIKQDLDAVTLWAYALGATVLISAAPFFVLFLIPVESNSPRHRSLLQILLSFASGGLLGDAFLHLIPHALEPHSHHTLEQPGHGHSHSGQGPILSVGLWVLSGIVAFLVVEKFVRHVKGGHGHSHGHGHAHSHTRGSHGHGRQERSTKEKQSSEEEEKETRGVQKRRGGSTVPKDGPVRPQNAEEEKRGLDLRVSGYLNLAADLAHNFTDGLAIGASFRGGRGLGILTTMTVLLHEVPHEVGDFAILVQSGCSKKQAMRLQLLTAVGALAGTACALLTEGGAVGSEIAGGAGPGWVLPFTAGGFIYVATVSVLPELLREASPLQSLLEVLGLLGGVIMMVLIAHLE
Consider B2, for which the “neurodegeneration due to expression of Vap33” value with Vap33 is listed as “suppressed”. In the data set on photoreceptor cells, the “photoreceptor cell death (rough eye)” value was “prevented”. Further, the “neurodegeneration due to expression of amyloid β42” value in the data set with amyloid β42 is recorded as “suppressed”. Further, in data set [4] (setting [5]), the FK2/DNA ratio result is “decreased” and the ubiquitinated protein levels entry is listed as “decreased”. The “activity of the proteasome” value in data set [4] (even in the presence of a proteasome inhibitor) is given as “enhances”.
